# Results: patent US9482663
# Molecular target: Anti-CRP antibodies (polyclonal)
# Assay: SPR (Spreeta chip), anti-CRP antibodies injected over OM layer with Z-domain on gold
substance,measurement,value
Z-domain of protein A autodisplayed on the E. coli outer membrane as a fusion protein of AIDA-I (from UniProt P38507 212-269; Q03155 840-1286),SPR signal,1.1 A.U
